This is an account of results in publication PMC4500542 (Cell reports, 2015).

The data set concerns the molecule itself. Kind of data set: SEC-MALS.

B1: MBP-EBOV NP 1-367 (domain or fragment)
chain: MDSRPQKIWMAPSLTESDMDYHKILTAGLSVQQGIVRQRVIPVYQVNNLEEICQLIIQAFEAGVDFQESADSFLLMLCLHHAYQGDYKLFLESGAVKYLEGHGFRFEVKKRDGVKRLEELLPAVSSGKNIKRTLAAMPEEETTEANAGQFLSFASLFLPKLVVGEKACLEKVQRQIQVHAEQGLIQYPTAWQSVGHMMVIFRLMRTNFLIKFLLIHQGMHMVAGHDANDAVISNSVAQARFSGLLIVKTVLDHILQKTERGVRLHPLARTAKVKNEVNSFKAALSSLAKHGEYAPFARLLNLSGVNNLEHGLFPQLSAIALGVATAHGSTLAGVNVGEQYQQLREAATEAEKQLQQYAESRELDHLG
As to B1, the binding result is reported as “binds”.
